From paper doi:10.1101/2025.01.28.635353, “DyAb: sequence-based antibody design and property prediction in a low-data regime” (bioRxiv, 2025)

Target: T1, EGFR (Homo sapiens, isoform 1 (assumed), UniProt P00533)
T1 construct: EGFR, the target antigen injected in SPR
Assay: SPR; antibody captured on a Protein A chip, target antigen injected 5 min, dissociation 10 min at 30 µL/min; multi-cycle mode; 37 degC; HBS-EP+ (10 mM Hepes pH 7.4, 150 mM NaCl, 0.3 mM EDTA, 0.05% Surfactant P20); 1:1 Langmuir fit; absolute affinities of the leads are medians across all experimental rounds
Conditions: both partners purified

B1: anti-EGFR lead (antibody, V domains shown)
VH: EVKLQQSGDETMRPGASVRMSCKAYGYTFTDYSVHWIRQRPGQGLEWIGIIIPLIDTTRYNQKFKGKAVLTADTSSDTAYMELSRLTFEDSAVYYCARSYGSSGDDWFAYWGQGTLVTVSS
VL: DTVLTQSPALSVSPGERVDISCRASESVSTLLHWYQQKPGQQPTLLISLASSLESGVPARFSGSGSGTDFTLTIDPVEADDTAIYYCQESWNEPYAFGAGTKLELK
notes: the Fab of this antibody was crystallised and deposited as PDB 9MU1 (heavy chain); the Fab of this antibody was crystallised and deposited as PDB 9MU1 (light chain); The methods tell the production (Expi293, purified) only of the DyAb designs; The Fab for the crystal was made in CHO cells; also called aEGFR lead; starting point lead candidate
  Kd: 3 nM

B2: aEGFR-R1-1 (antibody, V domains shown)
VH: EVKLQQSGDETMRPGASVRMSCKAYGYTFTDYSMHWIRQRPGQGLEWIGIIIPLIDTTRYNQKFKGKATLTADTSSDTAYMELSRLTFEDSAVYYCARSYDPSGDDWFAYWGQGTLVTVSS
VL: DTVLTQSPALSVSPGERVDISCRASESVSTLLHWYQQKPGQQPTLLISLASSLESGVPARFSGSGSGTDFTLTIDPVEADDTAIYYCQESWNEPYAFGAGTKLELK
notes: the Fab was crystallised and deposited as PDB 9MSW (heavy chain); as the heavy chain of m1 with four mutations across CDR-H1, CDR-H3 and the framework (Kabat numbering); the Fab was crystallised and deposited as PDB 9MSW (light chain); The Fab for the crystal was made in CHO cells; also called R1-1 design; DyAb design aEGFR-R1-1; source: Expi293, transiently expressed, purified from supernatant
  binding result: binds
